# Assay results published in patent US20050282254.
# B1: Pro39 (C-terminal cysteine protease domain of Semliki Forest virus non-structural protein nsP2) (protein)
# chain: KVIEGPAAPVDAFQNKANVCWAKSLVPVLDTAGIRLTAEEWSTIITAFKEDRAYSPVVALNEICTKYYGVDLDSGLFSAPKVSLYYENNHWDNRPGGRMYGFNAATAARLEARHTFLKGQWHTGKQAVIAERKIQPLSVLDNVIPINRRLPHALVAEYKTVKGSRVEWLVNKVRGYHVLLVSEYNLALPRRRVTWLSPLNVTGADRCYDLSLGLPADAGRFDLVFVNIHTEFRIHHYQQCVDHAMKLQMLGGDALRLLKPGGSLLMRAYGYADKISEAVVSSLSRKFSSARVLRPDCVTSNTEVFLLFSNFDNGKRPSTLHQMNTKLSAVYAGEAMHTAGC
# Key:
# substrate with 6/S5 site = target: T1, substrate with 6/S5 site
# T1 chain: LGRAGASIFSS
# [1] = target: recombinant protein of full size thioredoxine domain, protease recognition site and truncated C-terminal region (40 aa residues) of thioredoxin [thioredoxin: P0AA25]
# substrate with 6/R5 site = target: T2, substrate with 6/R5 site
# T2 chain: LGRAGARIFSS
# substrate with 6/G5 site = target: T3, substrate with 6/G5 site
# T3 chain: LGRAGAGIFSS
protein,measurement,setting,value
B1,"cleavage specificity, mass-spectrometry",substrate with 6/S5 site,cleavage specificity was preserved for all of these modified recognition sites (demonstrated by mass-spectrometry)
same,"cleavage efficiency, Pro39, SDS-PAGE",[1],non structured Ter substrate is poorly cleaved while Trx substrate is effectively cleaved
same,"cleavage specificity, mass-spectrometry",substrate with 6/R5 site,cleavage specificity was preserved for all of these modified recognition sites (demonstrated by mass-spectrometry)
same,"cleavage specificity, mass-spectrometry",substrate with 6/G5 site,cleavage specificity was preserved for all of these modified recognition sites (demonstrated by mass-spectrometry)
